Molecular target: protein-base BG505 trimer (BG505 DS-SOSIP-2G-3Mut-RnS7Mut) (HIV-1 (BG505)) (UniProt Q2N0S6)
Assay: SPR; 2G12 antibody immobilised on a CM5 chip (about 2,000 RU), HIV trimer loaded onto it; sCD4 injected at five concentrations (30-500 nM), single cycle, 50 uL/min; 10 mM HEPES pH 7.4, 150 mM NaCl, 3 mM EDTA, 0.05% P-20; Biacore T-200

soluble construct of CD4 containing the first two domains (sCD4) (domain or fragment)
Kd: 1200 nM

From paper PMC10404741
